Test [1] deals with GST (glutathione-S-transferase alone) (Schistosoma japonicum (Blood fluke), UniProt P08515 = GST). The test is described as follows: GST pull-down, SDS-PAGE and fluorography.
A further test addresses full length BRCA1 (human, UniProt P38398). The test is described as follows: GST pull-down, SDS-PAGE and fluorography.

B1: LexA-BRCA1-RF fusion construct (amino-terminal 100 amino acids of human BRCA1, wild type, fused to the LexA DNA-binding domain) (other)
chain: MDLSALRVEEVQNVINAMQKILECPICLELIKEPVSTKCDHIFCKFCMLKLLNQKKGPSQCPLCKNDITKRSLQESTRFSQLVEELLKIICAFQLDTGLE
Take B1: the binding result in test [1] is listed as “no binding”.

B2: GST-hBAP1(483-594 of SEQ ID NO: 2) fusion protein lacking the minimal interaction domain (other)
chain: QPSPTPSNESTDTASEIGSAFNSPLRSPIRSANPTRPSSPVTSHISKVLFGEDDSLLRVDCIRYNRAVRDLGPVISTGLLHLAEDGVLSPLALTEGGKGSSPSIRPIQGSQG
As for B2, the binding result with full length BRCA1 was “no binding”.

(Values after US6307035, “BRCA1 associated polynucleotide (BAP-1) and uses therefor” (The Wistar Institute of Anatomy and Biology, dated 2001).)
